Among the targets are DRB1*0404; DRB1*0401; DRB1*0101; DRB1*1501; DRB1*0802; DRB1*0405; DRB4*0101; DRB1*1302; DRB1*0701; DRB1*0901; DRB5*0101; DRB1*1101; DRB1*0301.
Assay in all cases: binding to purified HLA
Common to all, as to conditions: chains peptide; modification not given

B1: SEQ ID NO: 3 (peptide)
chain: AKFVAAWTLKAAA
Turning to B1, the IC50 with DRB1*0404 came to 0.79 nM; in the assay with DRB1*0401, 1.4 nM; in the assay with DRB1*0101, 4 nM; with DRB1*1501 it was 37 nM; in the assay with DRB1*0802, 9.5 nM; in the assay with DRB1*0405, 32 nM. Moreover, the IC50 is 447 nM with DRB4*0101; 367 nM in the assay with DRB1*1302; 97 nM with DRB1*0701; 50 nM with DRB1*0901; 19 nM in the assay with DRB5*0101; 9.1 nM with DRB1*1101. Further, the IC50 in the assay with DRB1*0301 was 289 nM.

One may read the IC50 as the concentration at which inhibition is half-maximal. A higher IC50 goes with a need for much substance.
